Reference: patent US20260028422A1 (CONCEPT TO MEDICINE BIOTECH, published 2026)
Residue numbers refer to the chain shown, from its start.

T1: human MerTK expressed on cells (human, UniProt Q12866 21-999)
T1 construct: whole, on cells; also called CHO-K1-hMerTK; CHO-K1-MerTK
T1 sequence (looked up): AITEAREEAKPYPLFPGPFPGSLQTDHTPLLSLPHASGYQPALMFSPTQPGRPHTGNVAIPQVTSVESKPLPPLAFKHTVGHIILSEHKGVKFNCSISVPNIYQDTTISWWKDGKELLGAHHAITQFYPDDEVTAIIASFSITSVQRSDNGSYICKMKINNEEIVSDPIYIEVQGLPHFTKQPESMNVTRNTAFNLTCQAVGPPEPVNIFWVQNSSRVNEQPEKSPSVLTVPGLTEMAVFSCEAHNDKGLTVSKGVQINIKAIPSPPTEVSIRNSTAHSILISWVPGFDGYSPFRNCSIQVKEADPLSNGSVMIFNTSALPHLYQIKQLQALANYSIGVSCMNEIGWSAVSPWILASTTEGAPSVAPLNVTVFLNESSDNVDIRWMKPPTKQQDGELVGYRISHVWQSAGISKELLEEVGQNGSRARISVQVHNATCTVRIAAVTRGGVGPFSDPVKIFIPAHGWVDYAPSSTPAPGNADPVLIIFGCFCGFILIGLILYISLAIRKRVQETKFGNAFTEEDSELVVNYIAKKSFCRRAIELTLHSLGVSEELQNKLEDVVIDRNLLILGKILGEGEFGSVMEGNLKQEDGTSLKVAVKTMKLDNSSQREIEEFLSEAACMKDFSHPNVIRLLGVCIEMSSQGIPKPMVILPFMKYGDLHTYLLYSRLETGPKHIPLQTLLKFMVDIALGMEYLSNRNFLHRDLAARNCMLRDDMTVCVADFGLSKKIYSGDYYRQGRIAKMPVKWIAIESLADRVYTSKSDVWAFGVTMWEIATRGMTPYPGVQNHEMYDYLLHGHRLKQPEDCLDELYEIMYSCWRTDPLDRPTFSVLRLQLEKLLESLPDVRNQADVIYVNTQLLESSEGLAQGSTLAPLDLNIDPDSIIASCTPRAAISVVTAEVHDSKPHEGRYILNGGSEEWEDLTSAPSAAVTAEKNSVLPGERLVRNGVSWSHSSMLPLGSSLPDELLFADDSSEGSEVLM

T2: human MerTK-his protein (human, UniProt Q12866 21-505)
T2 construct: extracellular domain; also called hMerTK-His; human MerTK protein
T2 sequence (looked up): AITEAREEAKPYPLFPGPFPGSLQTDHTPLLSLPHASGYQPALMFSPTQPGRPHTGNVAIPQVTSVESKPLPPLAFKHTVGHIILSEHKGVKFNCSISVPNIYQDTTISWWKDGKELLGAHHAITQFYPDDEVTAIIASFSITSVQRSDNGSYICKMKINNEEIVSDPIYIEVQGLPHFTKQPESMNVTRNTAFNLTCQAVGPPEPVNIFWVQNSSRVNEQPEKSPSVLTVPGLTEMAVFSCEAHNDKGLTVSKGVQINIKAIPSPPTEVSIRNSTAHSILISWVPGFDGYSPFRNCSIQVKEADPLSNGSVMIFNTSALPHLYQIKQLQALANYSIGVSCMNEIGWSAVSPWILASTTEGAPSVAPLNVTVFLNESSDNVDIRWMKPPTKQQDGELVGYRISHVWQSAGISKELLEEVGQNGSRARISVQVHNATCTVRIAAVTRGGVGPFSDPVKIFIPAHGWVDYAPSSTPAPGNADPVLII

B1: 265F11B5Hu-11 (antibody, V domains shown)
VH: QVQLVQSGAEVKKPGASVKVSCKASGYTFTTYDINWVRQAPGQGLEWIGWIYPRDGYTKYNEKFKGRATMTTDTSTSTAYMELRSLRSDDTAVYFCTRGYYDNLYYFDYWGQGTTVTVSS
VL: EIVLTQSPDFQSVTPKEKVTITCSASSIISSNYFHWYQQKPDQSPKLLIYRTSNLASGVPSRFSGSGSGTDYTLTINSLEAEDAATYYCQQGRSVPLTFGQGTKLEIK
B2: 265F11B5Hu-6 (antibody, V domains shown)
VH: B1 VH with I48M, A68V, F95Y
VL: B1 VL with Y50K
B3: 265F11B5Hu-1 (antibody, V domains shown)
VH: B1 VH with I48M, A68V, F95Y, T97A
VL: B1 VL with Y50K, Y72F
B4: 265F11B5Hu-10 (antibody, V domains shown)
VH: B1 VH with I48M, A68V, F95Y
VL: B1 VL
B5: 265F11B5Hu-3 (antibody, V domains shown)
VH: B1 VH
VL: B1 VL with Y50K, Y72F
B6: 265F11B5Hu-4 (antibody, V domains shown)
VH: B1 VH with M70L, T71A, T72V
VL: B1 VL with Y50K, Y72F
B7: 265F11B5Hu-7 (antibody, V domains shown)
VH: B1 VH
VL: B1 VL with Y50K
B8: 265F11B5Hu-8 (antibody, V domains shown)
VH: B1 VH with M70L, T71A, T72V
VL: B1 VL with Y50K
B9: 265F11B5Hu-9 (antibody, V domains shown)
VH: B1 VH with I48M, A68V, F95Y, T97A
VL: B1 VL
B10: 265F11B5Hu-5 (antibody, V domains shown)
VH: B1 VH with I48M, A68V, F95Y, T97A
VL: B1 VL with Y50K
B11: 265F11B5Hu-2 (antibody, V domains shown)
VH: B1 VH with I48M, A68V, F95Y
VL: B1 VL with Y50K, Y72F
B12: 10F7D9 Hu-2 (antibody, V domains shown)
VH: QIQLVQSGSELKKPGASVKVSCKASGYTFTNYGMNWVRQAPGQGLEWMGWINTYTGEPTYADDFKGRFVFSLDTSVSTAYLQISSLKAEDTAVYYCATYGHYAWFAYWGQGTLVTVSS
VL: EIVLTQSPDFQSVTPKEKVTITCRASSSVSYMHWYQQKPDQSPKLLIKATSNLASGVPSRFSGSGSGTDFTLTINSLEAEDAATYYCQQWGTKPLTFGQGTKLEIK
notes: also called Hu-2 of 10F7D9
B13: 10F7D9 Hu-6 (antibody, V domains shown)
VH: B12 VH with I2V, V20I, S84N, S85N, Y95F
VL: B12 VL
notes: also called Hu-6 of 10F7D9
B14: 10F7D9 Hu-1 (antibody, V domains shown)
VH: B12 VH with I2V, T98R
VL: B12 VL
notes: also called Hu-1 of 10F7D9
B15: 10F7D9 Hu-14 (antibody, V domains shown)
VH: B12 VH
VL: B12 VL with L45P, L46W, K48Y, Y86F
notes: also called Hu-14 of 10F7D9
B16: 10F7D9 Hu-4 (antibody, V domains shown)
VH: B12 VH with E46K, Y95F
VL: B12 VL
notes: also called Hu-4 of 10F7D9
B17: 10F7D9 Hu-8 (antibody, V domains shown)
VH: B12 VH
VL: B12 VL with L45P, L46W
notes: also called Hu-8 of 10F7D9
B18: 10F7D9 Hu-3 (antibody, V domains shown)
VH: B12 VH with Y95F
VL: B12 VL
notes: also called Hu-3 of 10F7D9

Biological target: T1, human MerTK expressed on cells
Test: FACS on CHO-K1 cells overexpressing human MerTK, MFI (AF488)

EC50 | Binder
0.22 nM | B1

Biological target: T2, human MerTK-his protein
Test: SPR Biacore 8K, antibody captured on Protein A chip, 50 nM antigen
Description: To explore whether the humanized antibodies could maintain their binding kinetics, affinity ranking were performed with Biacore™. The antibodies were captured with a Protein A chips. Human MerTK-his protein at 50 nM was injected over captured antibodies for 180 s at a flow rate of 30 μL/min. The antigen was allowed to dissociate for 600 s. The experiment was carried out on a Biacore™ 8K. Data analysis was carried out using Biacore™ 8K evaluation software.

Kd | koff | kon | Binder
1.4 nM | 0.000278 s⁻¹ | 199000 M⁻¹ s⁻¹ | B2
1.15 nM | 0.000232 s⁻¹ | 201000 M⁻¹ s⁻¹ | B3
2.52 nM | 0.000463 s⁻¹ | 184000 M⁻¹ s⁻¹ | B4
1.02 nM | 0.000204 s⁻¹ | 199000 M⁻¹ s⁻¹ | B5
0.856 nM | 0.000172 s⁻¹ | 201000 M⁻¹ s⁻¹ | B6
1.94 nM | 0.000378 s⁻¹ | 195000 M⁻¹ s⁻¹ | B1
0.719 nM | 0.000155 s⁻¹ | 216000 M⁻¹ s⁻¹ | B7
0.174 nM | 3.95e-05 s⁻¹ | 227000 M⁻¹ s⁻¹ | B8
2.17 nM | 0.000443 s⁻¹ | 204000 M⁻¹ s⁻¹ | B9
1.16 nM | 0.000232 s⁻¹ | 200000 M⁻¹ s⁻¹ | B10
1.27 nM | 0.00025 s⁻¹ | 197000 M⁻¹ s⁻¹ | B11

Biological target: T1, human MerTK expressed on cells
Test: FACS on CHO-K1 cells overexpressing human MerTK, MFI (AF488)
Remark: another data set of the same source

EC50 | Binder
0.17 nM | B2
0.16 nM | B3
0.19 nM | B4
0.22 nM | B5
0.13 nM | B6
0.14 nM | B7
0.14 nM | B8
0.19 nM | B9
0.17 nM | B10
0.14 nM | B11

Biological target: T2, human MerTK-his protein
Test: ELISA, plate coated with human MerTK-his, OD 450nm
Description: (§1) To evaluate the binding activity, the chimeric mAbs were subjected to ELISA test. Briefly, 96-well plates were coated with human or cyno MerTK-his protein at 2 μg/mL in PBS, 100 μL/well at 4° C. overnight, then blocked with 150 μL/well of 1% BSA. Five-fold dilutions of MerTK antibodies starting from 20 nM were added to each well and incubated for 1 hour at room temperature. The plates were washed with PBS/Tween-20 and then incubated with goat anti-human IgG Fe antibody conjugated with Horse Radish Peroxidase (HRP) for 30 minutes (mins) at room temperature. After washing, the plates were developed with TMB substrate and subsequent stop solution was added to complete the reaction. The signal from each well was read by spectrophotometer at OD 450 nm.
(§2) To evaluate the antigen binding activity, the humanized antibodies were subjected to ELISA test as described before.

EC50 | Binder
0.042 nM | B1

Biological target: T2, human MerTK-his protein
Test: ELISA, plate coated with human MerTK-his, OD 450nm
Remark: another data set of the same source
Description: as §1, §2

EC50 | Binder
0.035 nM | B12
0.033 nM | B13
0.028 nM | B14
0.027 nM | B15
0.027 nM | B16
0.0024 nM | B17
0.034 nM | B18
0.044 nM | B2
0.042 nM | B3
0.045 nM | B4
0.06 nM | B5
0.068 nM | B6
0.021 nM | B7
0.037 nM | B8
0.059 nM | B9
0.062 nM | B10
0.054 nM | B11

Biological target: T1, human MerTK expressed on cells
Test: FACS on CHO-K1 cells overexpressing human MerTK, MFI (PE)
Description: To evaluate the binding property to the antigen expressed on the cells, the chimeric monoclonal antibodies were analyzed for their binding to human MerTK overexpressed on CHO-K1 cells by FACS. Briefly, human MerTK overexpressing CHO-K1 (CHO-K1-MerTK) cells were firstly incubated with 5-fold serially diluted mAbs starting at 20 nM at 4° C. for 1 hour. After washing with FACS buffer, the PE conjugated anti-human IgG-Fc secondary antibody was added to each well and incubated at 4° C., for 30 mins. The mean fluorescence intensity (MFI) of PE were evaluated by QuantAnalyzer 16.
To evaluate the binding property to the antigen expressed on the cells, the humanized antibodies were analyzed by FACS as described before.

EC50 | Binder
0.45 nM | B12
0.45 nM | B13
0.29 nM | B14
0.15 nM | B15
0.47 nM | B16
0.1 nM | B17
1.2 nM | B18
